Consider four molecules from PMC9237525, “Solution Structure of Tubuliform Spidroin N-Terminal Domain and Implications for pH Dependent Dimerization” (Frontiers in Molecular Biosciences, 2022).

As usually defined, the stoichiometry N is the number of molecules, sites or subunits per partner or assembly.

Series [1] has as its target Argiope argentata TuSp NT E37Q E82Q (Argiope argentata). Kind of series: SEC; Superdex 75 Increase 10/300 GL, 50 µl at 3 mg/ml, 20 mM NaOAc, 20 mM NaCl, pH 5.5.
The target in series [2] is Argiope argentata TuSp NT E37Q E82Q E85Q (Argiope argentata). Described as above.
Series [3] deals with Argiope argentata TuSp NT E37Q E82Q E85Q D130N (Argiope argentata). The series is described as above.
Series [4] deals with the molecule itself. Kind of series: 15N NMR relaxation (rotational correlation time); pH 5.5; T1 and T2 of backbone amides, 800 MHz; molecular weight estimated from the correlation time.

In the case of “Argiope argentata TuSp NT E37Q E82Q (domain or fragment)”, the stoichiometry N in series [1] was determined as 2.

On to “Argiope argentata TuSp NT E37Q E82Q E85Q (domain or fragment)”, for which the stoichiometry N in series [2] was found to be 2.

“Argiope argentata TuSp NT E37Q E82Q E85Q D130N (domain or fragment)” returned a stoichiometry N in series [3] of 2.

B1: Argiope argentata tubuliform spidroin (TuSp 1) N-terminal domain, wild type (domain or fragment)
chain: AVTAVPSVFSSPNLASGFLQCLTFGIGNSPAFPTQEQQDLDAIAQVILNAVSTNTGATASARAQALSTALASSLTDLLIAESAESNYNNQLSELTGILSNCFIQTTGSDNPAFVSRIQSLISVLSQNTDVNIISTA
notes: Tubuliform spidroin 1 (TuSp 1) N-terminal domain, Argiope argentata; 136 residues (count printed for the A70E variant); Expressed from pET-32a-HisTrxHisNT; Intramolecular disulfide C22-C102; 15N- or 13C,15N-labelled for NMR; Calculated mass 14.1 kDa (monomer); also called TuSp NT; wt TuSp NT; not shown: His-Trx, N-terminal, cleaved
For the molecule B1, the “stoichiometry N” value in series [4] is 2.
